Consider two molecules from patent publication US8287851B2, “Use of interleukin 17E for the treatment of cancer” (Lorus Therapeutics Inc., priority 2005, dated 2012).

Experiment [1] deals with B cell linker protein BLNK. Kind of experiment: BLNK phosphorylation in B cell lymphoma cell line WEHI-231 (Western blot). The note with it: 0.21 μg per 1.5×10^6 WEHI-231 cells, 0, 2, 5 minutes. It is filed as cell-based. From the text: (§1) The effect of IL-17E on activation of signaling pathways in B cells was examined using the B cell lymphoma cell line WEHI-231 (Lanier L. L., et al. (1981) J. Immunol. 126:626-31). Specifically, the activation status of the protein tyrosine kinase Lyn and the B cell linker protein BLNK (Tsubata, T., et al., (2001) Int Rev Immunol 20:675-8) were examined. An increased level of the phosphorylated forms of these proteins is indicative of activation.
(§2) A total of 1.5×10^6 cells per sample were stimulated in vitro with 0.21 μg of either human IL-17E or murine IL17E at 37° C. Cells were lysed at time points t=0, 2, and 5 minutes in lysis buffer for 30 minutes on ice, followed by centrifugation for 10 minutes. Samples containing approximately 25 μg of protein were separated by SDS-PAGE, followed by transfer to membranes for Western blotting.
For detection of phosphorylated BLNK, Western blots were incubated with rabbit anti-phospho-BLNK antibodies, followed by horseradish peroxidase (HRP)-conjugated anti-rabbit antibodies.
(§3) To assess equivalence in protein loading among lanes in both experiments, blots were stripped of antibodies and incubated with mouse anti-GAPDH antibodies and HRP-conjugated anti-mouse antibodies, followed by chemiluminescence-based detection.
(Immunoblotting shows a protein as a band on a membrane.)

Experiment [2] concerns IkappaB alpha (NF-kappaB pathway). Kind of experiment: NF-kappaB pathway activation: IkappaB alpha phosphorylation in WEHI-231 cells. It is filed as cell-based. Conditions: 0.7 μg per 5×10^6 WEHI-231 cells, 0, 2, 5 minutes. How it is done:
The ability of both human and murine interleukin 17E to activate proteins in the Nuclear Factor-kappa B (NF-kappaB) pathway was examined using the B cell lymphoma cell line WEHI-231. […] Activation of the NK-kappaB pathway was assessed by increased phosphorylation of the protein IkappaB alpha. […] The activation of NF-kappa B is associated with the phosphorylation of IkappaB alpha in response to certain stimuli.
A total 5×10^6 cells per sample were stimulated with 0.7 μg of either human IL-17E (hIL-17E) or murine IL-17E (mIL-17E) at 37° C. Cells were lysed at time points t=0, 2, and 5 minutes in lysis buffer for 30 minutes on ice, followed by centrifugation for 10 minutes. Samples containing approximately 40 μg of protein were separated by SDS-PAGE, followed by transfer to membranes for Western blotting.
Blots were incubated with rabbit anti-phospho-IkappaB-alpha antibodies, followed by horesradish peroxidase (HRP)-conjugated anti-rabbit antibodies. Blots were exposed to autoradiography film and developed to detect phosphorylated IkB (at approximately 41 kD) by chemiluminescence.
as §3

The subject of experiment [3] is human melanoma C8161 xenograft. Kind of experiment: Antitumour activity in murine xenograft model of human melanoma C8161. Format: in vivo, CD-1 athymic nude mice. How it is done: Human melanoma cell line C8161 was grown in RPMI 1640 medium (Wisent Inc., St. Bruno, QC) with 10% fetal bovine serum, penicillin (100 U/ml), streptomycin ([…]) (Wisent Inc.) at 37° C. under 95% air and 5% CO2, and maintained with routine media changes. Adherent C8161 cells were passaged by trypsinization with 0.025% trypsin. CD-1 athymic nude mice and C57BL/6 (6-8 weeks old, 20-25 g, female) were purchased from Charles River (Montreal, QC).
Human tumour xenografts were established in mice. Briefly, human tumour cells were harvested at approximately 80% confluence in cell culture medium and resuspended in sterile PBS. Ten million tumour cells in 100 μl were subcutaneously implanted into the right flank of CD-1 athymic nude mice. When tumours reached a volume of 50-100 mm^3, mice were randomly separated into two groups of 10 animals and treated with BD-BRM until the endpoint of the experiment. Anti-tumour activity was evaluated and tumour volume was estimated by caliper measurements, using the formula: Length×Width×Height×/2. Tumour weight was determined from tumour tissue surgically excised from the animal on the last day of the experiment. The percentage of inhibition (%)=(mean tumour weight of control animals−mean tumour weight of drug-treated group)/mean tumour weight of controls×100. A p value of ≦0.05 was considered to be statistically significant.
Mice bearing human melanoma C8161 xenograft were treated intraperitoneally with BD-BRM or PBS for 4 weeks. Briefly, human melanoma C8161 cells were subcutaneously injected into the right flank of CD-1 nude mice as described above. The mice were then administered i.p. with 0.2 ml of PBS or BD-BRM daily when tumours reached a volume of 50-100 mm^3.
Recombinant human IL-17E was obtained from PeproTech, Inc., and is present in the preparation as a 33.8 kDA disulphide linked homodimer of two 145 amino acid polypeptide chains. The predominant form of IL-17E in this preparation is the form starting at Tyr 33 of the human sequence provided by GenBank Accession No. AAG40848. Human melanoma C8161 cells (10^6 cells in 100 μl PBS) were subcutaneously implanted into the right flank of CD-1 athymic nude mice. When tumours reached a volume of 50-100 mm^3, mice were randomly separated into two groups of 10 animals and treated as follows:
Group I: 100 μl of PBS intraperitoneally (i.p.) per mouse every other day until the endpoint of the experiment; and
Group II: 0.04 mg/kg of recombinant human IL-17E intraperitoneally (i.p.) every other day until the endpoint of the experiment.
The size of the tumours was measured by caliper measurements throughout the experiment. Tumour volume was determined using the formula (Length×Width×Height/2). T-tests were performed to assess the statistical significance of differences in tumour sizes. A p value of ≦0.05 was considered to be statistically significant.
The effect of human IL-17E dosage on antitumour efficacy was examined using a murine xenograft model of human melanoma tumour growth. Human melanoma C8161 cells (10^6 cells in 100 μl PBS) were subcutaneously implanted into the right flank of CD-1 athymic nude mice. When tumours reached a volume of 50-100 mm^3, mice were randomly separated into four groups of 10 animals and treated as follows:
Group I: 100 μl of PBS subcutaneously (s.c.) per mouse every other day until the endpoint of the experiment; […]
(In general: A xenograft is tissue or cells of one species grown in another, often human tumour cells in immunodeficient mice.)

In experiment [4] the test system is protein tyrosine kinase Lyn. Kind of experiment: Lyn phosphorylation in B cell lymphoma cell line WEHI-231 (Western blot). Conditions: 0.21 μg per 1.5×10^6 WEHI-231 cells, 0, 2, 5 minutes. Format: cell-based.
Description: as §1, §2
For detection of Lyn, Western blots were incubated with rabbit anti-Lyn antibodies, followed by horseradish peroxidase (HRP)-conjugated anti-rabbit antibodies. All blots were exposed to autoradiography film and developed to detect proteins of interest by chemiluminescence.
as §3

B1: human IL-17E: Recombinant human IL-17E from PeproTech; two 145 amino acid chains, predominant form starting at Tyr 33 of GenBank AAG40848 (protein, listed as Homo sapiens)
chain: YSHWPSCCPSKGQDTSEELLRWSTVPVPPLEPARPNRHPESCRASEDGPLNSRAISPWRYELDRDLNRLPQDLYHARCLCPHCVSLQTGSHMDPRGNSELLYHNQTVFYRRPCHGEKGTHKGYCLERRLYRVSLACVCVRPRVMG
Take B1: the “levels of phosphorylated BLNK protein” value in experiment [1] was “increased”. Moreover, in experiment [2], the “levels of phosphorylated IkappaB alpha (p-IkB-α)” value is “increased”. Moreover, the “tumour growth (tumour volume) as compared to PBS” value in experiment [3] (0.04 mg/kg recombinant human IL-17E i.p. every other day) is listed as “significantly inhibit tumour growth”. Moreover, in experiment [3] (0.0018, 0.016, 0.144 mg/kg s.c. every other day), the “antitumour effect with increasing doses” value was “dose-response effect”. Besides, the “levels of phosphorylated Lyn protein” value in experiment [4] is on record as “increased”.

B2: murine IL-17E: Murine IL-17E from R&D Systems; predominant form starting at Val 17 of GenBank NP 542767 (protein)
chain: VSLRIQEGCSHLPSCCPSKEQEPPEEWLKWSSASVSPPEPLSHTHHAESCRASKDGPLNSRAISPWSYELDRDLNRVPQDLYHARCLCPHCVSLQTGSHMDPLGNSVPLYHNQTVFYRRPCHGEEGTHRRYCLERRLYRVSLACVCVRPRVMA
With B2, in experiment [1], the “levels of phosphorylated BLNK protein” value is recorded as “increased”. Also, in experiment [2], the “levels of phosphorylated IkappaB alpha (p-IkB-α)” value is on record as “increased”. The “antitumour efficacy, comparison of i.p. and i.v. routes of administration” value in experiment [3] (0.04 mg/kg murine IL-17E every other day) is reported as “approximately equivalent antitumour efficacy”. Further, the “tumour growth (tumour weight) vs PBS” value in experiment [3] (0.04 mg/kg murine IL-17E intraperitoneally every other day) and in experiment [3] (0.04 mg/kg murine IL-17E intravenously every other day) was “inhibit tumour growth” throughout. Moreover, the “levels of phosphorylated Lyn protein” value in experiment [4] was “increased”.
